IC50 data for 9 molecules are collected here from US20140087995A1 (published 2014).

Changes are numbered by the printed parent chain. Numbered stars: 1 amine (or outer) side, 2 acyl side, 3 side chain; on linkers, the order of the positions; unused ones are H or OH. Bridge positions count the residues as written; N and C are the ends. Side chains are listed from the residue outwards. Ends that are not written are not given here. * marks the point of attachment. C20 diacid = O=C(O)CCCCCCCCCCCCCCCCCCC(=O)*; γGlu = O=C(O)[C@H](CCC(=O)[*:2])N[*:1]; AEEA = NCCOCCOCC(=O)O

For test [1], the target named is T1, human calcitonin receptor (human, UniProt P30988 25-474).
T1 construct: whole, on cells; also called hCTR; hCT
T1 sequence (looked up): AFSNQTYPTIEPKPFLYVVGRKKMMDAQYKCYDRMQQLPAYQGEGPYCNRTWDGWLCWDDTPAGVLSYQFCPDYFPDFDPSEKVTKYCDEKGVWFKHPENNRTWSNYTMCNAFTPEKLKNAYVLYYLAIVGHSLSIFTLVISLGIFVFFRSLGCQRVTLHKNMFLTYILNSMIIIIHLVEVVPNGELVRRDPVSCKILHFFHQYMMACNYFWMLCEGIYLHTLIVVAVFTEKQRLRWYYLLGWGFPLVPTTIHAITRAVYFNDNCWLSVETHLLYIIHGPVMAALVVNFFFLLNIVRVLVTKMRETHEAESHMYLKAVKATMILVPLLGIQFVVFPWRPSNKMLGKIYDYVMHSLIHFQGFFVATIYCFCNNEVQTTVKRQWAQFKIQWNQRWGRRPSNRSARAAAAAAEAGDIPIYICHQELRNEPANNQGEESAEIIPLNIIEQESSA
The test is described as follows: SPA competition with 125I-calcitonin, membranes of BHK hCTR cells (Assay VII). The method, then: Membranes were prepared in the following way; the cells were rinsed with PBS and incubated with Versene for approximately 5 min before harvesting. The cells were flushed with PBS and the cell-suspension was centrifuged for 5 min at 1000 rpm. Cells were homogenized (Ultrathurrax) in a buffer containing 20 mM Na-HEPES and 10 mM EDTA (pH 7.4) and centrifuged at 20.000 rpm for 15 min. The resulting pellet was resuspended, homogenized and centrifuged (20.000 rpm, 15 min) in a buffer containing 20 mM Na-HEPES and 0.1 mM EDTA (pH 7.4, buffer 2). The resulting pellet was resuspended in buffer 2 and protein concentration was measured (BCA protein Assay, Pierce). The homogenate was kept cold during the whole procedure. The membranes were kept at −80° C. until use. Assay was performed in a 384 well Optiplate (PerkinElmer) in a total volume of 40 ul. Membranes were mixed with SPA beads. Final concentration of membranes 35 ng/μL final and Final concentration of SPA beads was 0.05 mg/well. Test-compounds were dissolved in DMSO and further diluted in assay buffer (50 mM Hepes, pH 7.4, 1 mM CaCl2, 5 mM MgCl₂, 0.1% OA and 0.02% Tween20). […] The final mixture was incubated for 120 min with shaking at 400 rpm at 25° C. prior to centrifugation (1500 rpm, 10 min). Samples were analyzed on TopCounter™ (Packard). The […] was calculated using (one site binding competition analysis) GraphPad Prism5 as a measure of receptor affinity.

Test [2] addresses T2, human calcitonin receptor (human, UniProt P30988 25-474).
T2 construct: whole, on cells; Used as cell membranes prepared from the transfected BHK cells (Assay VII), not as intact cells; also called hCTR; hCT
T2 sequence (looked up): T1 sequence (looked up)
The test is described as follows: SPA competition against 125I-calcitonin, membranes with human calcitonin receptor (Assay VII). The procedure, abridged:
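BHK hCTR membranes 35 ng/μL + SPA beads 0.05 mg/well; buffer 50 mM Hepes pH 7.4, 1 mM CaCl2, 5 mM MgCl₂, 0.1% OA, 0.02% Tween20. 120 min, 25° C., shaking. Scintillation count; IC50 by one-site binding competition.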

B1: N^α1 N^α1-[(4S)-4-carboxy-4-[[(4S)-4-carboxy-4-(19-carboxynonadecanoylamino)butanoyl]amino]butanoyl]-[Glu14,Arg17,Pro21,Pro27]-h-amylin (peptide)
peptide: {C20 diacid-γGlu-γGlu}-KCNTATCATQRLAEFLRHSSPNFGAIPSSTNVGSNTY-NH2
modifications: disulfide 2-7
SMILES: CC[C@H](C)[C@H](NC(=O)[C@H](C)NC(=O)CNC(=O)[C@H](Cc1ccccc1)NC(=O)[C@H](CC(N)=O)NC(=O)[C@@H]1CCCN1C(=O)[C@H](CO)NC(=O)[C@H](CO)NC(=O)[C@H](Cc1c[nH]cn1)NC(=O)[C@H](CCCNC(=N)N)NC(=O)[C@H](CC(C)C)NC(=O)[C@H](Cc1ccccc1)NC(=O)[C@H](CCC(=O)O)NC(=O)[C@H](C)NC(=O)[C@H](CC(C)C)NC(=O)[C@H](CCCNC(=N)N)NC(=O)[C@H](CCC(N)=O)NC(=O)[C@@H](NC(=O)[C@H](C)NC(=O)[C@@H]1CSSC[C@H](NC(=O)[C@H](CCCCN)NC(=O)CC[C@H](NC(=O)CC[C@H](NC(=O)CCCCCCCCCCCCCCCCCCC(=O)O)C(=O)O)C(=O)O)C(=O)N[C@@H](CC(N)=O)C(=O)N[C@@H]([C@@H](C)O)C(=O)N[C@@H](C)C(=O)N[C@@H]([C@@H](C)O)C(=O)N1)[C@@H](C)O)C(=O)N1CCC[C@H]1C(=O)N[C@@H](CO)C(=O)N[C@@H](CO)C(=O)N[C@H](C(=O)N[C@@H](CC(N)=O)C(=O)N[C@H](C(=O)NCC(=O)N[C@@H](CO)C(=O)N[C@@H](CC(N)=O)C(=O)N[C@H](C(=O)N[C@@H](Cc1ccc(O)cc1)C(N)=O)[C@@H](C)O)C(C)C)[C@@H](C)O
notes: also called compound 15
Turning to B1, the IC50 in test [1] stood at 15.5 nM.

B2: N^α1-[(4S)-4-carboxy-4-(19-carboxynonadecanoylamino)butanoyl]-[Arg17,Pro21,Pro27,Arg34]-h-amylin (peptide)
peptide: KCNTATCATQRLANFLRHSSPNFGAIPSSTNVGRNTY
modifications: C20 diacid-gGlu on alpha amino group of N-terminal Lys 1; disulfide Cys2-Cys7; C-terminal amide (as human amylin)
notes: also called compound 39
For B2, the IC50 in test [1] came out at 19.3 nM.

B3: N^α1-[2-[2-[2-[[2-[2-[2-[[(4S)-4-carboxy-4-(19-carboxynonadecanoylamino)butanoyl]amino]ethoxy]ethoxy]acetyl]amino]ethoxy]ethoxy]acetyl]-[Glu14,Arg17,Pro21,Pro27 … (peptide)
peptide: B2 peptide with N14E, R34S
modifications: C20 diacid-gGlu-2xOEG on alpha amino group of N-terminal Lys 1; disulfide Cys2-Cys7; C-terminal amide (as human amylin)
notes: also called compound 19
For the molecule B3, the IC50 in test [1] was determined as 20.4 nM.

B4: N^α1-[(4S)-4-carboxy-4-(19-carboxynonadecanoylamino)butanoyl]-[Arg17,Pro21,Pro27,His34]-h-amylin (peptide)
peptide: B2 peptide with R34H
modifications: C20 diacid-gGlu on alpha amino group of N-terminal Lys 1; disulfide Cys2-Cys7; C-terminal amide (as human amylin)
notes: also called compound 40
As to B4, in test [1], the IC50 was 17.1 nM.

B5: N^α1-[(4S)-4-carboxy-4-(19-carboxynonadecanoylamino)butanoyl]-[Arg17,Pro21,Pro27,Glu35]-h-amylin (peptide)
peptide: B2 peptide with R34S, N35E
modifications: C20 diacid-gGlu on alpha amino group of N-terminal Lys 1; disulfide Cys2-Cys7; C-terminal amide (as human amylin)
notes: also called compound 23
For the molecule B5, the half-maximal inhibitory concentration (IC50) in test [1] stood at 21.8 nM.

B6: N^α1-[(4S)-4-carboxy-4-(19-carboxynonadecanoylamino)butanoyl]-[Arg17,Pro21,Pro27,Lys35]-h-amylin (peptide)
peptide: B2 peptide with R34S, N35K
modifications: C20 diacid-gGlu on alpha amino group of N-terminal Lys 1; disulfide Cys2-Cys7; C-terminal amide (as human amylin)
notes: also called compound 34
As to B6, the IC50 in test [1] worked out at 73.4 nM.

B7: N^α1-[(4S)-4-carboxy-4-(19-carboxynonadecanoylamino)butanoyl]-[Arg17,Pro21,Pro27,Pro31,Glu35]-h-amylin (peptide)
peptide: {C20 diacid-γGlu}-KCNTATCATQRLANFLRHSSPNFGAIPSSTPVGSETY-NH2
modifications: disulfide 2-7
SMILES: CC[C@H](C)[C@H](NC(=O)[C@H](C)NC(=O)CNC(=O)[C@H](Cc1ccccc1)NC(=O)[C@H](CC(N)=O)NC(=O)[C@@H]1CCCN1C(=O)[C@H](CO)NC(=O)[C@H](CO)NC(=O)[C@H](Cc1c[nH]cn1)NC(=O)[C@H](CCCNC(=N)N)NC(=O)[C@H](CC(C)C)NC(=O)[C@H](Cc1ccccc1)NC(=O)[C@H](CC(N)=O)NC(=O)[C@H](C)NC(=O)[C@H](CC(C)C)NC(=O)[C@H](CCCNC(=N)N)NC(=O)[C@H](CCC(N)=O)NC(=O)[C@@H](NC(=O)[C@H](C)NC(=O)[C@@H]1CSSC[C@H](NC(=O)[C@H](CCCCN)NC(=O)CC[C@H](NC(=O)CCCCCCCCCCCCCCCCCCC(=O)O)C(=O)O)C(=O)N[C@@H](CC(N)=O)C(=O)N[C@@H]([C@@H](C)O)C(=O)N[C@@H](C)C(=O)N[C@@H]([C@@H](C)O)C(=O)N1)[C@@H](C)O)C(=O)N1CCC[C@H]1C(=O)N[C@@H](CO)C(=O)N[C@@H](CO)C(=O)N[C@H](C(=O)N1CCC[C@H]1C(=O)N[C@H](C(=O)NCC(=O)N[C@@H](CO)C(=O)N[C@@H](CCC(=O)O)C(=O)N[C@H](C(=O)N[C@@H](Cc1ccc(O)cc1)C(N)=O)[C@@H](C)O)C(C)C)[C@@H](C)O
notes: also called compound 28
In the case of B7, in test [1], the IC50 turned out to be 12.5 nM.

B8: N^ε-[2-[2-[2-[[(4S)-4-carboxy-4-(19-carboxynonadecanoylamino)butanoyl]amino]ethoxy]ethoxy]acetyl]Lys[Arg1,Arg17,Pro21,Pro27,His35]-h-amylin (peptide)
peptide: K([AEEA-γGlu-C20 diacid])RCNTATCATQRLANFLRHSSPNFGAIPSSTNVGSHTY-NH2
modifications: disulfide 3-8; N-terminus assumed
SMILES: CC[C@H](C)[C@H](NC(=O)[C@H](C)NC(=O)CNC(=O)[C@H](Cc1ccccc1)NC(=O)[C@H](CC(N)=O)NC(=O)[C@@H]1CCCN1C(=O)[C@H](CO)NC(=O)[C@H](CO)NC(=O)[C@H](Cc1c[nH]cn1)NC(=O)[C@H](CCCNC(=N)N)NC(=O)[C@H](CC(C)C)NC(=O)[C@H](Cc1ccccc1)NC(=O)[C@H](CC(N)=O)NC(=O)[C@H](C)NC(=O)[C@H](CC(C)C)NC(=O)[C@H](CCCNC(=N)N)NC(=O)[C@H](CCC(N)=O)NC(=O)[C@@H](NC(=O)[C@H](C)NC(=O)[C@@H]1CSSC[C@H](NC(=O)[C@H](CCCNC(=N)N)NC(=O)[C@@H](N)CCCCNC(=O)COCCOCCNC(=O)CC[C@H](NC(=O)CCCCCCCCCCCCCCCCCCC(=O)O)C(=O)O)C(=O)N[C@@H](CC(N)=O)C(=O)N[C@@H]([C@@H](C)O)C(=O)N[C@@H](C)C(=O)N[C@@H]([C@@H](C)O)C(=O)N1)[C@@H](C)O)C(=O)N1CCC[C@H]1C(=O)N[C@@H](CO)C(=O)N[C@@H](CO)C(=O)N[C@H](C(=O)N[C@@H](CC(N)=O)C(=O)N[C@H](C(=O)NCC(=O)N[C@@H](CO)C(=O)N[C@@H](Cc1c[nH]cn1)C(=O)N[C@H](C(=O)N[C@@H](Cc1ccc(O)cc1)C(N)=O)[C@@H](C)O)C(C)C)[C@@H](C)O
notes: also called compound 45
Consider B8, for which the IC50 in test [2] is 14.8 nM.

B9: N^ε1-[(4S)-4-carboxy-4-(19-carboxynonadecanoylamino)butanoyl]-[Arg17,Pro21,Pro27]-h-amylin (peptide)
peptide: K([γGlu-C20 diacid])CNTATCATQRLANFLRHSSPNFGAIPSSTNVGSNTY-NH2
modifications: disulfide 2-7; N-terminus assumed
SMILES: CC[C@H](C)[C@H](NC(=O)[C@H](C)NC(=O)CNC(=O)[C@H](Cc1ccccc1)NC(=O)[C@H](CC(N)=O)NC(=O)[C@@H]1CCCN1C(=O)[C@H](CO)NC(=O)[C@H](CO)NC(=O)[C@H](Cc1c[nH]cn1)NC(=O)[C@H](CCCNC(=N)N)NC(=O)[C@H](CC(C)C)NC(=O)[C@H](Cc1ccccc1)NC(=O)[C@H](CC(N)=O)NC(=O)[C@H](C)NC(=O)[C@H](CC(C)C)NC(=O)[C@H](CCCNC(=N)N)NC(=O)[C@H](CCC(N)=O)NC(=O)[C@@H](NC(=O)[C@H](C)NC(=O)[C@@H]1CSSC[C@H](NC(=O)[C@@H](N)CCCCNC(=O)CC[C@H](NC(=O)CCCCCCCCCCCCCCCCCCC(=O)O)C(=O)O)C(=O)N[C@@H](CC(N)=O)C(=O)N[C@@H]([C@@H](C)O)C(=O)N[C@@H](C)C(=O)N[C@@H]([C@@H](C)O)C(=O)N1)[C@@H](C)O)C(=O)N1CCC[C@H]1C(=O)N[C@@H](CO)C(=O)N[C@@H](CO)C(=O)N[C@H](C(=O)N[C@@H](CC(N)=O)C(=O)N[C@H](C(=O)NCC(=O)N[C@@H](CO)C(=O)N[C@@H](CC(N)=O)C(=O)N[C@H](C(=O)N[C@@H](Cc1ccc(O)cc1)C(N)=O)[C@@H](C)O)C(C)C)[C@@H](C)O
notes: also called compound 48
On to B9, for which, in test [2], the IC50 worked out at 30.9 nM.

The term IC50 denotes the concentration at which inhibition is half-maximal.
